Assay results reported in IntAct's records for PubMed 26751641.

What was measured:
chd1_human CHD1 [1] = target: chd1_human CHD1 (UniProt O14646)
chd1_human CHD1 [2] = target: chd1_human CHD1 (UniProt O14646); remark: listed apart in the source

Chain of UniProt O14646 (O14646 whole entry): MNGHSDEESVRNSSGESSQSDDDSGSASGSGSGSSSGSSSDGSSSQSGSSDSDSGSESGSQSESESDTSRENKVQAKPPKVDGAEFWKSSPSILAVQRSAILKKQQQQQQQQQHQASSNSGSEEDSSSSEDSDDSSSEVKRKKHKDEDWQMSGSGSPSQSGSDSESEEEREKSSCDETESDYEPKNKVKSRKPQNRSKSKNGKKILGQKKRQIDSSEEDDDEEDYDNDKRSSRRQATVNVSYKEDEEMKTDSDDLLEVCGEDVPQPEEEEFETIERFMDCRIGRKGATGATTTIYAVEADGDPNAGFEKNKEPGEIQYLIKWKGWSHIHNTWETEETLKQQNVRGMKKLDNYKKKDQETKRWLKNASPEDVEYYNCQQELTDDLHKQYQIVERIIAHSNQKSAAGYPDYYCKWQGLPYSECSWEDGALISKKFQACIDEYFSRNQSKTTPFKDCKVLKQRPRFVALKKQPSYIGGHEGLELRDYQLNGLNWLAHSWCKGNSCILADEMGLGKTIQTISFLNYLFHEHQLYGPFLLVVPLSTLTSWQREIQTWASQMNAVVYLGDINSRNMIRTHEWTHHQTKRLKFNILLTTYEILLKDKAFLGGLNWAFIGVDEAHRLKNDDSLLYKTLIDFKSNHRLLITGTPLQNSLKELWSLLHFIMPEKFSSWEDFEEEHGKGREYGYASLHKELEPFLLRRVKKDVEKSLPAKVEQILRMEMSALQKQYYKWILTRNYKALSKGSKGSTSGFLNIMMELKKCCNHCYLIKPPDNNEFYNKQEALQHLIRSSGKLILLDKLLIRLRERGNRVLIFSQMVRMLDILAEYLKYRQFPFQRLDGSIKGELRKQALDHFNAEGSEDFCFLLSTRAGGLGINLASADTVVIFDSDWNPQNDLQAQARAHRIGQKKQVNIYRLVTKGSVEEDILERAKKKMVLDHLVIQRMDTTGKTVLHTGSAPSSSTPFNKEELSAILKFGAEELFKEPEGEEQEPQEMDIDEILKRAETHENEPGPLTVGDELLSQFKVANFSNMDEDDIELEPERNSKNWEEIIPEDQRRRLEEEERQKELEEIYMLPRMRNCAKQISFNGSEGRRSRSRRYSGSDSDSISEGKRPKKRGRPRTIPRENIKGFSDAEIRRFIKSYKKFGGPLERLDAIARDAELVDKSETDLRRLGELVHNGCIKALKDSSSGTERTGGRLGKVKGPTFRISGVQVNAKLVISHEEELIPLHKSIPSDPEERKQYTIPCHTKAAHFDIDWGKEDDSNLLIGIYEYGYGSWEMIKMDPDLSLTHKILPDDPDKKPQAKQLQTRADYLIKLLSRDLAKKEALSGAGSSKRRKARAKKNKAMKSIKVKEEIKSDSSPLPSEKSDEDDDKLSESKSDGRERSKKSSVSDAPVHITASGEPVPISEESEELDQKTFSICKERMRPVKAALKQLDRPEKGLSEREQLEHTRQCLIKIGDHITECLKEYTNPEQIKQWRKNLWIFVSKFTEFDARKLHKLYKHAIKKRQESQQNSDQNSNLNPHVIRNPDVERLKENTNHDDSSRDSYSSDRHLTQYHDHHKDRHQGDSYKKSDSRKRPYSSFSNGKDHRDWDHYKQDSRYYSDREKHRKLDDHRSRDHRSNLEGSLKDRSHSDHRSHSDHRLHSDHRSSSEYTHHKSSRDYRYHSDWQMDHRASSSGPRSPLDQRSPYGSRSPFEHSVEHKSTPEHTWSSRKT

| Substance | effect of a mutation on the interaction (chd1_human CHD1 [1]) | effect of a mutation on the interaction (chd1_human CHD1 [2]) |
| --- | --- | --- |
| Lysine-specific histone demethylase 1A (Homo sapiens) (from UniProt O60341-1) K114A | disrupting interaction strength |  |
| Lysine-specific histone demethylase 1A (Homo sapiens) (from UniProt O60341-1) R113A |  | disrupting interaction strength |
